Results: PMC12892918, “CoREST complex inhibition alters RNA splicing to promote neoantigen expression and enhance tumor immunity” (JCI Insight, 2025)

B1: His-tag U2AF2 fragment (aa 241–471), Cy5-labelled (domain or fragment)
chain: NPSVYVPGVVSTVVPDSAHKLFIGGLPNYLNDDQVKELLTSFGPLKAFNLVKDSATGLSKGYAFCEYVDINVTDQAIAGLNGMQLGDKKLLVQRASVGAKNATLVSPPSTINQTPVTLQVPGLMSSQVQMGGHPTEVLCLMNMVLPEELLDDEEYEEIVEDVRDECSKYGLVKSIEIPRPVDGVEVPGCGKIFVEFTSVFDCQKAMQGLTGRKFANRVVVTKYCDPDSYHR
modifications: Cy5 dye at lysine residues (reactive NHS-ester dye)
notes: U2AF2, aa 241-471, composed of RRM2 and UHM; also called U2AF2 241–471; Fluor-U2AF2
B2: His-tag U2AF2 fragment (aa 85–471), Cy5-labelled (domain or fragment)
chain: KKKVRKYWDVPPPGFEHITPMQYKAMQAAGQIPATALLPTMTPDGLAVTPTPVPVVGSQMTRQARRLYVGNIPFGITEEAMMDFFNAQMRLGGLTQAPGNPVLAVQINQDKNFAFLEFRSVDETTQAMAFDGIIFQGQSLKIRRPHDYQPLPGMSENPSVYVPGVVSTVVPDSAHKLFIGGLPNYLNDDQVKELLTSFGPLKAFNLVKDSATGLSKGYAFCEYVDINVTDQAIAGLNGMQLGDKKLLVQRASVGAKNATLVSPPSTINQTPVTLQVPGLMSSQVQMGGHPTEVLCLMNMVLPEELLDDEEYEEIVEDVRDECSKYGLVKSIEIPRPVDGVEVPGCGKIFVEFTSVFDCQKAMQGLTGRKFANRVVVTKYCDPDSYHR
modifications: Cy5 dye at lysine residues (reactive NHS-ester dye)
notes: U2AF2, aa 85-471; also called U2AF2 85–471; Fluor-U2AF2

Molecular target: LSD1 (aa 171–852) and RCOR1 (aa 286–485) complex (truncated LC) (UniProt O60341 171-852; Q9UKL0 286-485)
Test: MST; Cy5-labelled His-tag U2AF2 fragments mixed with serially diluted truncated LSD1/RCOR1
Conditions: both partners purified

Binder	Kd
B1	16 µM
B2	14 µM
